T1: recombinant human ADAM10 (Biomatik, #RPU140010) (human, UniProt O14672 214-672, limits assumed)
T1 construct: The source and catalogue number are printed for the phage display selections only; also called purified human ADAM10; Disintegrin and metalloproteinase domain-containing protein 10
T1 sequence (looked up): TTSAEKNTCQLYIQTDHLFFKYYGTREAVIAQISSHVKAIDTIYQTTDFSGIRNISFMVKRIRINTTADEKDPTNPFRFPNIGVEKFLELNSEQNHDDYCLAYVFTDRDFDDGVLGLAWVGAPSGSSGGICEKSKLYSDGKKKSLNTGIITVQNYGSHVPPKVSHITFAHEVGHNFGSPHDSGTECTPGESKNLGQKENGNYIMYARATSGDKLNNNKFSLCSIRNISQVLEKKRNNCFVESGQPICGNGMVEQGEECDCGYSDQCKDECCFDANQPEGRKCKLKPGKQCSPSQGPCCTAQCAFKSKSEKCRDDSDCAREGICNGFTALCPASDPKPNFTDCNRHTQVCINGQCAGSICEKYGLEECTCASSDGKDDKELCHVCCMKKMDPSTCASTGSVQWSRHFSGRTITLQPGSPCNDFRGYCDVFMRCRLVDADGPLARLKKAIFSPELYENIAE


Assays:
[1] = target: T1, recombinant human ADAM10 (Biomatik, …); test: phage ELISA, ADAM10 signal over BSA signal
Method: (§1) A phage-based ELISA was performed as a semi-quantitative approach to initially validate scFv binding to ADAM10. ADAM10 was adsorbed to ELISA plates and purified phage displaying each of the scFv clones was tested for a binding signal compared to a negative control bovine serum albumin (BSA) protein.
(§2) Similar to the phage display screening methodology, ADAM10 was adsorbed to NUNC MaxiSorp Immunoplates and subsequently incubated with ˜10¹² purified phage displaying an scFv clone. An anti-phage-horseradish peroxidase secondary antibody was then used to generate binding signals for each clone in duplicate, which was measured by colour development at an optical density of 450 nm (O.D. 450 nm) using a tetramethylbenzidine substrate (ThermoScientific, #34028).

[2] = target: T2, bovine serum albumin (BSA) (bovine, UniProt P02769 25-607); test: phage ELISA, scFv displayed on M13 phage, BSA negative control, duplicate 1
T2 construct: Negative control / background protein in the phage ELISA
Method: as §1, §2

[3] = target: T2, bovine serum albumin (BSA); test: phage ELISA, scFv displayed on M13 phage, BSA negative control, duplicate 2
Method: as §1, §2

[4] = target: T1, recombinant human ADAM10 (Biomatik, …); test: BLI (Octet RED384), unlabeled scFv coupled to AR2G biosensors, ADAM10 at 500 and 166 nM, global fit
Method: (§3) BLI sensorgrams for scFv-B2 (A), scFv-B7 (B), and scFv-B9 (C) show real-time binding curves in nanometers of optical thickness versus time (sec). […] A global best fit (solid red line) for each curve was calculated by ForteBio Data Anaylsis 7.1 software and used to determine the kinetic parameters in Table 5.
(§4) Biolayer interferometry was performed with an Octet RED384 instrument (ForteBio). The initial kinetics with unlabeled scFv was performed through coupling to AR2G biosensors per manufacturer instructions (ForteBio). These biosensors were then dipped into ADAM10 (500 nM and 166 nM) to generate the association curves, after which the sensors were moved into buffer alone to generate the corresponding dissociation curves. ForteBio Data Analysis 7.0 software was used for global curve fitting to generate the kinetic data. The kinetic analysis for biotin-conjugated scFvs was performed similarly, except that streptavidin biosensors (ForteBio) were used for immobilization, along with three ADAM10 concentrations (1000 nM, 500 nM, 166 nM). An equal loading (i.e. optical thickness) of the biosensors was performed in both kinetic experiments.

[5] = target: T1, recombinant human ADAM10 (Biomatik, …); test: BLI (Octet RED384), biotin-labeled scFv on streptavidin biosensors, ADAM10 at 1000, 500 and 166 nM, global fit
Method: as §3, with “biotin-scFv-B2” for “scFv-B2”, “biotin-scFv-B7” for “scFv-B7”, “biotin-scFv-B9” for “scFv-B9”, “6.” for “5.”
as §4

[6] = target: T1, recombinant human ADAM10 (Biomatik, …); test: phage ELISA, ADAM10 signal over BSA signal; underrepresentation because OD was above the detectable limit
Method: as §1, §2

T2 sequence (P02769 25-607 limits assumed): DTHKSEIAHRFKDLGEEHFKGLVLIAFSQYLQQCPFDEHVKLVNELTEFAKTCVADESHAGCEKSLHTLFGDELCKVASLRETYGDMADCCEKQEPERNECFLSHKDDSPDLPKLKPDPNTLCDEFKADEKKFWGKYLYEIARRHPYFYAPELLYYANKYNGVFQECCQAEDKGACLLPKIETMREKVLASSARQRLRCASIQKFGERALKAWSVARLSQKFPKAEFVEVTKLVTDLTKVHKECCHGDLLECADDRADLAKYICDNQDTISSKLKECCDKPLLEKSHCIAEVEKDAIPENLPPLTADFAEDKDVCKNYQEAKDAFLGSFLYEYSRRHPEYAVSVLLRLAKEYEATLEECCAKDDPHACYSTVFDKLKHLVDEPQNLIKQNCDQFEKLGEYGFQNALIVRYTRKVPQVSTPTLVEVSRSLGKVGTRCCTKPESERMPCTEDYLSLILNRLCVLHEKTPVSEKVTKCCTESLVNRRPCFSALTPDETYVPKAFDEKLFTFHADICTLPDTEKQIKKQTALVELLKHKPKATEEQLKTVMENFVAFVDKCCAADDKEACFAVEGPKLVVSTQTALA

Row | Binder | Average fold signal over background [1] | Absorbance at O.D. 450 nm [2] | Absorbance at O.D. 450 nm [3] | Kd [4] | koff [4] | kon [4] | Kd [5] | koff [5] | kon [5] | Average fold signal over background [6]
1 | scFv-B9 (scFv, Synthetic human scFv, order VL (IgKV1-16 framework) - (G3S)4 linker - VH (IgHV3-30 framework); Expressed in E. coli BL-21 and purified by protein L chromatography) scFv: SDIQMTQSPSSLSASVGDRVTITCRASQGISNYLAWYQQKPGKAPKLLIYAASSLQSGVPSRFSGSRSGTDFTLTISSLQPEDFATYYCQQLYHPPLTFGQGTKVEIKGGGSGGGSGGGSGGGSEVQLVESGGGLVQPGGSLRLSCAASGFTFSSYGMHWVRQAPGKGLEWVAVISYDGSNKYYADSVKGRFTISRDNSKNTLYLQMNSLRAEDTAVYYCARYSPYHYSHSVSYYYYGFDVWGQGTLVTVSS | 42.1 fold | 0.075 OD 450 nm | 0.082 OD 450 nm | 9.32 nM | 0.000115 s⁻¹ | 12400 M⁻¹ s⁻¹ |  |  |  | 
2 | biotin-scFv-B9 (scFv, covalently labeled with biotin by N-hydroxysuccinamide amine coupling (EZ-link NHS biotin); labeled residues not stated, held on streptavidin biosensors in the BLI experiments; also called biotin-labeled scFv-B9) scFv: SDIQMTQSPSSLSASVGDRVTITCRASQGISNYLAWYQQKPGKAPKLLIYAASSLQSGVPSRFSGSRSGTDFTLTISSLQPEDFATYYCQQLYHPPLTFGQGTKVEIKGGGSGGGSGGGSGGGSEVQLVESGGGLVQPGGSLRLSCAASGFTFSSYGMHWVRQAPGKGLEWVAVISYDGSNKYYADSVKGRFTISRDNSKNTLYLQMNSLRAEDTAVYYCARYSPYHYSHSVSYYYYGFDVWGQGTLVTVSS |  |  |  |  |  |  | 23.1 nM | 0.00117 s⁻¹ | 50800 M⁻¹ s⁻¹ | 
3 | scFv-B7 (scFv, Synthetic human scFv, order VL (IgKV1-16 framework) - (G3S)4 linker - VH (IgHV3-30 framework); Expressed in E. coli BL-21 and purified by protein L chromatography) scFv: SDIQMTQSPSSLSASVGDRVTITCRASQGISNYLAWYQQKPGKAPKLLIYAASSLQSGVPSRFSGSRSGTDFTLTISSLQPEDFATYYCQQVSSWPLTFGQGTKVEIKGGGSGGGSGGGSGGGSEVQLVESGGGLVQPGGSLRLSCAASGFTFSSYGMHWVRQAPGKGLEWVAVISYDGSNKYYADSVKGRFTISRDNSKNTLYLQMNSLRAEDTAVYYCARYPPHGFDYWGQGTLVTVSS | 37 fold | 0.084 OD 450 nm | 0.086 OD 450 nm | 7.52 nM | 9.3e-05 s⁻¹ | 12400 M⁻¹ s⁻¹ |  |  |  | 
4 | biotin-scFv-B7 (scFv, covalently labeled with biotin by N-hydroxysuccinamide amine coupling (EZ-link NHS biotin); labeled residues not stated, held on streptavidin biosensors in the BLI experiments; also called biotin-labeled scFv-B7) scFv: SDIQMTQSPSSLSASVGDRVTITCRASQGISNYLAWYQQKPGKAPKLLIYAASSLQSGVPSRFSGSRSGTDFTLTISSLQPEDFATYYCQQVSSWPLTFGQGTKVEIKGGGSGGGSGGGSGGGSEVQLVESGGGLVQPGGSLRLSCAASGFTFSSYGMHWVRQAPGKGLEWVAVISYDGSNKYYADSVKGRFTISRDNSKNTLYLQMNSLRAEDTAVYYCARYPPHGFDYWGQGTLVTVSS |  |  |  |  |  |  | 21 nM | 0.00109 s⁻¹ | 51900 M⁻¹ s⁻¹ | 
5 | scFv-B2 (scFv, Synthetic human scFv, order VL (IgKV1-16 framework) - (G3S)4 linker - VH (IgHV3-30 framework); Expressed in E. coli BL-21 and purified by protein L chromatography) scFv: SDIQMTQSPSSLSASVGDRVTITCRASQGISNYLAWYQQKPGKAPKLLIYAASSLQSGVPSRFSGSRSGTDFTLTISSLQPEDFATYYCQQSYYLPLTFGQGTKVEIKGGGSGGGSGGGSGGGSEVQLVESGGGLVQPGGSLRLSCAASGFTFSSYGMHWVRQAPGKGLEWVAVISYDGSNKYYADSVKGRFTISRDNSKNTLYLQMNSLRAEDTAVYYCARWPAHFSHSHSSYYYYGFDVWGQGTLVTVSS |  | 0.096 OD 450 nm | 0.079 OD 450 nm | 14.6 nM | 0.000187 s⁻¹ | 12800 M⁻¹ s⁻¹ |  |  |  | > 45.7 fold
6 | biotin-scFv-B2 (scFv, covalently labeled with biotin by N-hydroxysuccinamide amine coupling (EZ-link NHS biotin); labeled residues not stated, held on streptavidin biosensors in the BLI experiments; also called biotin-labeled scFv-B2) scFv: SDIQMTQSPSSLSASVGDRVTITCRASQGISNYLAWYQQKPGKAPKLLIYAASSLQSGVPSRFSGSRSGTDFTLTISSLQPEDFATYYCQQSYYLPLTFGQGTKVEIKGGGSGGGSGGGSGGGSEVQLVESGGGLVQPGGSLRLSCAASGFTFSSYGMHWVRQAPGKGLEWVAVISYDGSNKYYADSVKGRFTISRDNSKNTLYLQMNSLRAEDTAVYYCARWPAHFSHSHSSYYYYGFDVWGQGTLVTVSS |  |  |  |  |  |  | 22 nM | 0.00103 s⁻¹ | 46800 M⁻¹ s⁻¹ | 
